According to the Immune Epitope Database (IEDB):

Columns and labels:
HLA-A*02:01 = assay: IEDB peptide-MHC binding, purified MHC/competitive/fluorescence; filed as Kd, often an IC50 or EC50 that approximates it; ≥ and ≤ were set here for values at or beyond the usual limits of such assays
HLA-A*02:03 = assay: as above
HLA-A*02:11 = assay: as above
HLA-A*02:12 = assay: as above
HLA-A*02:16 = assay: as above
HLA-A*02:19 = assay: as above
HLA-A*03:01 = assay: as above
HLA-A*23:01 = assay: as above
HLA-A*24:03 = assay: as above
HLA-A*26:01 [1] = assay: as above
HLA-A*29:02 = assay: as above
HLA-A*68:02 = assay: as above
HLA-A*69:01 = assay: as above
HLA-B*15:01 = assay: as above
HLA-B*15:17 = assay: as above
HLA-B*18:01 = assay: as above
HLA-B*27:03 = assay: as above
HLA-B*39:01 = assay: as above
HLA-B*46:01 = assay: as above
HLA-B*51:01 = assay: as above
HLA-B*57:01 = assay: as above
HLA-B*35:01 = assay: as above
HLA-A*01:01 = assay: IEDB peptide-MHC binding, purified MHC/direct/fluorescence; filed as Kd, often an IC50 or EC50 that approximates it; ≥ and ≤ were set here for values at or beyond the usual limits of such assays; conditions: source organism: Mycobacterium tuberculosis variant bovis BCG str. Pasteur 1173P2
HLA-A*26:01 [2] = assay: as above; conditions: source organism: Mycobacterium tuberculosis variant bovis BCG str. Pasteur 1173P2
HLA-B*58:01 = assay: IEDB peptide-MHC binding, purified MHC/competitive/fluorescence; filed as Kd, often an IC50 or EC50 that approximates it; ≥ and ≤ were set here for values at or beyond the usual limits of such assays; conditions: source organism: Bacillus cereus G9241
[3] = source organism: Giardia lamblia ATCC 50803
[4] = source organism: Bacillus anthracis str. A2012
[5] = source organism: Salmonella enterica subsp. enterica serovar Typhi str. CT18
[6] = source organism: Vibrio parahaemolyticus AQ3810

DEYGPVFVE
Kd (HLA-A*02:01; [3]): ≥ 20 µM | Kd (HLA-A*02:03; [3]): ≥ 20 µM | Kd (HLA-A*02:11; [3]): ≥ 20 µM | Kd (HLA-A*02:12; [3]): ≥ 20 µM | Kd (HLA-A*02:16; [3]): ≥ 20 µM | Kd (HLA-A*02:19; [3]): ≥ 20 µM | Kd (HLA-A*03:01; [3]): ≥ 20 µM | Kd (HLA-A*23:01; [3]): ≥ 20 µM | Kd (HLA-A*24:03; [3]): ≥ 20 µM | Kd (HLA-A*26:01 [1]; [3]): ≥ 20 µM | Kd (HLA-A*29:02; [3]): ≥ 20 µM | Kd (HLA-A*68:02; [3]): ≥ 20 µM | Kd (HLA-A*69:01; [3]): ≥ 20 µM | Kd (HLA-B*15:01; [3]): ≥ 20 µM | Kd (HLA-B*15:17; [3]): ≥ 20 µM | Kd (HLA-B*18:01; [3]): 0.0861 µM | Kd (HLA-B*27:03; [3]): ≥ 20 µM | Kd (HLA-B*39:01; [3]): ≥ 20 µM | Kd (HLA-B*46:01; [3]): ≥ 20 µM | Kd (HLA-B*51:01; [3]): ≥ 20 µM | Kd (HLA-B*57:01; [3]): ≥ 20 µM

FVAAGAFHM
Kd (HLA-A*26:01 [1]; [4]): 0.278 µM | Kd (HLA-B*35:01; [4]): 3.7 nM

FVARIDLGY
Kd (HLA-A*01:01): 602 nM | Kd (HLA-A*26:01 [2]): 19.9 nM | Kd (HLA-B*35:01; source organism: Mycobacterium tuberculosis C): 14.2 nM

KSKPRIHGY
Kd (HLA-A*02:01; [5]): ≥ 20 µM | Kd (HLA-A*02:03; [5]): ≥ 20 µM | Kd (HLA-A*02:11; [5]): ≥ 20 µM | Kd (HLA-A*02:12; [5]): ≥ 20 µM | Kd (HLA-A*02:16; [5]): ≥ 20 µM | Kd (HLA-A*02:19; [5]): ≥ 20 µM | Kd (HLA-A*03:01; [5]): ≥ 20 µM | Kd (HLA-A*23:01; [5]): ≥ 20 µM | Kd (HLA-A*24:03; [5]): ≥ 20 µM | Kd (HLA-A*26:01 [1]; [5]): ≥ 20 µM | Kd (HLA-A*29:02; [5]): ≥ 20 µM | Kd (HLA-A*68:02; [5]): ≥ 20 µM | Kd (HLA-A*69:01; [5]): ≥ 20 µM | Kd (HLA-B*18:01; [5]): ≥ 20 µM | Kd (HLA-B*27:03; [5]): ≥ 20 µM | Kd (HLA-B*39:01; [5]): ≥ 20 µM | Kd (HLA-B*46:01; [5]): ≥ 20 µM | Kd (HLA-B*51:01; [5]): ≥ 20 µM | Kd (HLA-B*57:01; [5]): 0.169 µM

KTNRTGLLM
Kd (HLA-B*58:01): 91.3 nM

KVGYFQHGA
Kd (HLA-A*02:01; [6]): ≥ 20 µM | Kd (HLA-A*02:03; [6]): ≥ 20 µM | Kd (HLA-A*02:12; [6]): 0.171 µM | Kd (HLA-A*02:16; [6]): ≥ 20 µM | Kd (HLA-A*02:19; [6]): ≥ 20 µM | Kd (HLA-A*03:01; [6]): ≥ 20 µM | Kd (HLA-A*23:01; [6]): ≥ 20 µM | Kd (HLA-A*24:03; [6]): ≥ 20 µM | Kd (HLA-A*26:01 [1]; [6]): ≥ 20 µM | Kd (HLA-A*29:02; [6]): ≥ 20 µM | Kd (HLA-B*15:01; [6]): ≥ 20 µM | Kd (HLA-B*15:17; [6]): ≥ 20 µM | Kd (HLA-B*18:01; [6]): ≥ 20 µM | Kd (HLA-B*27:03; [6]): ≥ 20 µM | Kd (HLA-B*39:01; [6]): ≥ 20 µM | Kd (HLA-B*46:01; [6]): ≥ 20 µM | Kd (HLA-B*51:01; [6]): ≥ 20 µM | Kd (HLA-B*57:01; [6]): ≥ 20 µM
